Positions count from the first letter of the chain named. Numbers in names are those of the source.
What was measured:
[1] = molecular target: T1, SynIM30 WT (Synechocystis sp. PCC 6803, UniProt Q55707); assay: malachite green Pi release; assay type: biochemical; settings: 0.5 mM GMP-PCP, GTP varied, 2.5 mM Mg2+, 37 °C; competitive or allosteric not resolved
T1 construct: gene vipp1; full length, N-terminal His-tag kept (pRSET IM30 WT), E. coli BL21(DE3), Ni-NTA; high molecular mass homo-oligomeric rings
T1 sequence (Q55707 1-267): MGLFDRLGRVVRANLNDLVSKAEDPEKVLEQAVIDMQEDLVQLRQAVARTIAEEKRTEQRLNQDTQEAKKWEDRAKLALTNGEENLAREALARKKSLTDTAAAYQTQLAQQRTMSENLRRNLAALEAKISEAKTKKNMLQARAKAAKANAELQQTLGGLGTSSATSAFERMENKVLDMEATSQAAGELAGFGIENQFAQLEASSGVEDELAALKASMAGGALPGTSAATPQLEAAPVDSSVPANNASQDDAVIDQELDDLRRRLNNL
Text: malachite green Pi release on SynIM30 WT | […]

[2] = molecular target: T1, SynIM30 WT; assay: thermal denaturation, CD at […] nm; assay type: binding; settings: 0.5 mM GTP with or without 2.5 mM Mg2+; 3.2 µM protein
[3] = substrate: Nc1nc2c(ncn2[C@@H]2O[C@H](COP(=O)(O)OP(=O)(O)OP(=O)(O)O)[C@@H](O)[C@H]2O)c(=O)[nH]1; assay: malachite green Pi release, Hill fit; assay type: biochemical, Synechocystis sp. PCC 6803; settings: 2.5 mM Mg2+, 20 mM HEPES, 37 °C, 30 min, Hill coefficient 1.29 ± 0.09
[4] = molecular target: the molecule itself; assay: SEC; Superose 12 10/300 GL column, 20 mM HEPES pH 7.6, 8 °C, elution followed at 280 nm; calibrated against standards of known size

## Nc1nc2c(ncn2[C@@H]2O[C@H](COP(=O)(O)OP(=O)(O)CP(=O)(O)O)[C@@H](O)[C@H]2O)c(=O)[nH]1 [GMP-PCP]
[1]
  malachite green Pi release: Addition of the non-hydrolyzable GTP analog GMP-PCP

## Nc1nc2c(ncn2[C@@H]2O[C@H](COP(=O)(O)OP(=O)(O)OP(=O)(O)O)[C@@H](O)[C@H]2O)c(=O)[nH]1 [GTP]
[2]
  Tm: This suggests that GTP binding affects the structure and stability of IM30 to some extent

B1: Synechocystis IM30 wild type (inner membrane-associated protein of 30 kDa) (natural protein, Synechocystis sp. PCC 6803, UniProt Q55707 1-267, looked up)
chain: T1 sequence (Q55707 1-267)
notes: IM30 (Vipp1) of the cyanobacterium Synechocystis sp; PCC 6803; Forms high molecular mass homo-oligomers (>300 kDa by SEC); the number of chains in them is not determined here; also called SynIM30; SynIM30 WT; source: E. coli BL21 (DE3), purified (Ni-NTA, Sephadex G25 buffer exchange)
[3]
  Km: 650 ± 140 µM
  kcat: 0.036 ± 0.0055 s⁻¹
[4]
  binding result: binds

B2: SynIM30 FERM_EE (E83A, E84A, F168A, E169A, R170A, M171A) (natural protein, Synechocystis sp. PCC 6803, UniProt Q55707 1-267, looked up)
chain: T1 sequence (Q55707 1-267) with E83A, E84A, F168A, E169A, R170A, M171A
notes: IM30 (Vipp1) of Synechocystis sp; PCC 6803 with six mutations brought into the plasmid of IM30 WT; mainly tetramers in buffers of low ionic strength; also called tetrameric SynIM30 variant; source: E. coli BL21 (DE3), purified (Ni-NTA, Sephadex G25 buffer exchange)
[4]
  stoichiometry N: 4
